In publication PMC10164551, “Structural basis of tRNAPro acceptor stem recognition by a bacterial trans-editing domain”:

Target: T1, ProXp-ala K50A (Caulobacter crescentus, UniProt Q9ABV9 1-168, K50A)
T1 sequence: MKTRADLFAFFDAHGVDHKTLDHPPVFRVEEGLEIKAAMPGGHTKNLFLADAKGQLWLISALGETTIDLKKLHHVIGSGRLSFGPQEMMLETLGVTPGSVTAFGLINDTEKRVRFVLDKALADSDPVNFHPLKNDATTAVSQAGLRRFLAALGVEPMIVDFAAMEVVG
Test: AUC; 1 mM MgCl2; 9.6 μM protein reaches about 36% bound; EMSA: 81 nM duplex annealed in 50 mM sodium phosphate pH 7.5, 150 mM NaCl, 0-114 μM protein, 1 h room temp, 16% native gel in TBE; NMR: same phosphate buffer, 1
Conditions: protein: recombinant; tags: N-terminal His6 removed by thrombin; leaves Gly-Ser-His; hairpin; 7 bp stem, 3' ACCA single-stranded

Binder: CGGCGAGUUCGCUCGCCGACCA (structured_RNA) [microhelixPro]
- binding signal: ~8 fold weaker than WT
